Tests used:
[1] = tested on: T1, CCCCCC(=O)Oc1ccc([N+](=O)[O-])cc1; experiment: p-nitrophenyl ester hydrolysis, Lineweaver-Burk; format: biochemical, Brevundimonas sp. LY-2; details: pH and temperature not stated for this assay
T1 construct: signal peptide (residues 1-28) removed; C-terminal His-tag, pET-29a(+); E. coli BL21(DE3); full ORF 306 aa; predicted 29,451 Da, SDS-PAGE ~30 kDa; gel filtration 62 kDa, dimer; N-terminus from primer (M)ATAEP
Text: (§1) p-nitrophenyl ester hydrolysis, Lineweaver-Burk on LacH

[2] = tested on: T2, CCCCCCCC(=O)Oc1ccc([N+](=O)[O-])cc1; experiment: p-nitrophenyl ester hydrolysis, Lineweaver-Burk; format: biochemical, Brevundimonas sp. LY-2; details: pH and temperature not stated for this assay
T2 construct: signal peptide (residues 1-28) removed; C-terminal His-tag, pET-29a(+); E. coli BL21(DE3); full ORF 306 aa; predicted 29,451 Da, SDS-PAGE ~30 kDa; gel filtration 62 kDa, dimer; N-terminus from primer (M)ATAEP
Text: as §1

[3] = tested on: T3, CC(=O)Oc1ccc([N+](=O)[O-])cc1; experiment: p-nitrophenyl ester hydrolysis, Lineweaver-Burk; format: biochemical, Brevundimonas sp. LY-2; details: pH and temperature not stated for this assay
T3 construct: signal peptide (residues 1-28) removed; C-terminal His-tag, pET-29a(+); E. coli BL21(DE3); full ORF 306 aa; predicted 29,451 Da, SDS-PAGE ~30 kDa; gel filtration 62 kDa, dimer; N-terminus from primer (M)ATAEP
Text: as §1

[4] = tested on: T4, CCCC(=O)Oc1ccc([N+](=O)[O-])cc1; experiment: p-nitrophenyl ester hydrolysis, Lineweaver-Burk; format: biochemical, Brevundimonas sp. LY-2; details: pH and temperature not stated for this assay
T4 construct: signal peptide (residues 1-28) removed; C-terminal His-tag, pET-29a(+); E. coli BL21(DE3); full ORF 306 aa; predicted 29,451 Da, SDS-PAGE ~30 kDa; gel filtration 62 kDa, dimer; N-terminus from primer (M)ATAEP
Text: as §1

[5] = tested on: CCOC(=O)C(C)OC(=O)c1cc(Oc2ccc(C(F)(F)F)cc2Cl)ccc1[N+](=O)[O-]; experiment: purified protein; details: 50 mM sodium phosphate, pH 7.0, 40 °C

LacH (Brevundimonas sp. LY-2)
Km [1]: 208 ± 12 µM | kcat [1]: 3.47 ± 0.13 s⁻¹ | kcat/Km [1]: 16700 M⁻¹ s⁻¹ | Km [2]: 335 ± 16 µM | kcat [2]: 0.767 ± 0.06 s⁻¹ | kcat/Km [2]: 2290 M⁻¹ s⁻¹ | Km [3]: 147 ± 8 µM | kcat [3]: 8.39 ± 0.28 s⁻¹ | kcat/Km [3]: 50100 M⁻¹ s⁻¹ | Km [4]: 185 ± 9 µM | kcat [4]: 7.48 ± 0.45 s⁻¹ | kcat/Km [4]: 40400 M⁻¹ s⁻¹ | Km [5]: 67 ± 2 µM | kcat [5]: 0.87 ± 0.09 s⁻¹ | kcat/Km [5]: 12900 M⁻¹ s⁻¹

Source: paper PMC5477170, “Biochemical characterization of an enantioselective esterase from Brevundimonas sp. LY-2” (Microbial Cell Factories, 2017)
